Laboratory results: paper doi:10.1101/2020.03.19.999276 (bioRxiv, 2020)

B1: purified human TRPA1 (hTRPA1) (natural protein, UniProt O75762 1-1119, looked up)
chain: MKRSLRKMWRPGEKKEPQGVVYEDVPDDTEDFKESLKVVFEGSAYGLQNFNKQKKLKRCDDMDTFFLHYAAAEGQIELMEKITRDSSLEVLHEMDDYGNTPLHCAVEKNQIESVKFLLSRGANPNLRNFNMMAPLHIAVQGMNNEVMKVLLEHRTIDVNLEGENGNTAVIIACTTNNSEALQILLKKGAKPCKSNKWGCFPIHQAAFSGSKECMEIILRFGEEHGYSRQLHINFMNNGKATPLHLAVQNGDLEMIKMCLDNGAQIDPVEKGRCTAIHFAATQGATEIVKLMISSYSGSVDIVNTTDGCHETMLHRASLFDHHELADYLISVGADINKIDSEGRSPLILATASASWNIVNLLLSKGAQVDIKDNFGRNFLHLTVQQPYGLKNLRPEFMQMQQIKELVMDEDNDGCTPLHYACRQGGPGSVNNLLGFNVSIHSKSKDKKSPLHFAASYGRINTCQRLLQDISDTRLLNEGDLHGMTPLHLAAKNGHDKVVQLLLKKGALFLSDHNGWTALHHASMGGYTQTMKVILDTNLKCTDRLDEDGNTALHFAAREGHAKAVALLLSHNADIVLNKQQASFLHLALHNKRKEVVLTIIRSKRWDECLKIFSHNSPGNKCPITEMIEYLPECMKVLLDFCMLHSTEDKSCRDYYIEYNFKYLQCPLEFTKKTPTQDVIYEPLTALNAMVQNNRIELLNHPVCKEYLLMKWLAYGFRAHMMNLGSYCLGLIPMTILVVNIKPGMAFNSTGIINETSDHSEILDTTNSYLIKTCMILVFLSSIFGYCKEAGQIFQQKRNYFMDISNVLEWIIYTTGIIFVLPLFVEIPAHLQWQCGAIAVYFYWMNFLLYLQRFENCGIFIVMLEVILKTLLRSTVVFIFLLLAFGLSFYILLNLQDPFSSPLLSIIQTFSMMLGDINYRESFLEPYLRNELAHPVLSFAQLVSFTIFVPIVLMNLLIGLAVGDIAEVQKHASLKRIAMQVELHTSLEKKLPLWFLRKVDQKSTIVYPNKPRSGGMLFHIFCFLFCTGEIRQEIPNADKSLEMEILKQKYRLKDLTFLLEKQHELIKLIIQKMEIISETEDDDSHCSFQDRFKKEQMEQRNSRWNTVLRAVKAKTHHLEP
modifications: Ni-NTA Atto647N on the N-terminal His-tag (labeled copies in FCS)
B2: Δ1-688 hTRPA1 (hTRPA1 without its N-terminal ankyrin repeat domain) (domain or fragment, human, UniProt O75762 689-1119, looked up)
chain: MVQNNRIELLNHPVCKEYLLMKWLAYGFRAHMMNLGSYCLGLIPMTILVVNIKPGMAFNSTGIINETSDHSEILDTTNSYLIKTCMILVFLSSIFGYCKEAGQIFQQKRNYFMDISNVLEWIIYTTGIIFVLPLFVEIPAHLQWQCGAIAVYFYWMNFLLYLQRFENCGIFIVMLEVILKTLLRSTVVFIFLLLAFGLSFYILLNLQDPFSSPLLSIIQTFSMMLGDINYRESFLEPYLRNELAHPVLSFAQLVSFTIFVPIVLMNLLIGLAVGDIAEVQKHASLKRIAMQVELHTSLEKKLPLWFLRKVDQKSTIVYPNKPRSGGMLFHIFCFLFCTGEIRQEIPNADKSLEMEILKQKYRLKDLTFLLEKQHELIKLIIQKMEIISETEDDDSHCSFQDRFKKEQMEQRNSRWNTVLRAVKAKTHHLEP
modifications: Ni-NTA Atto647N on the N-terminal His-tag (labeled copies in FCS)

Target: the molecule itself
Assay: fluorescence correlation spectroscopy

Protein	stoichiometry N
B1	4
B2	4
